{
  "source": "the nanobody polyreactivity screen of Harvey et al. (2022)",
  "data": [
    {"test": "yeast display, Sf9 membrane polyspecificity reagent, FACS + sequencing; frameworks hold sequencing errors", "procedure,_shortened": "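After 36–48 hours of galactose induction, yeast (Saccharomyces cerevisiae BJ5465) displaying a synthetic nanobody library were stained at 4 °C for 1 hour with 10% biotinylated, detergent-solubilized Sf9 membrane reagent. Streptavidin microbeads enriched the stained cells before FACS sorting into low and high (top ~1%) gates on anti-HA and streptavidin fluorescence. Each clone's polyreactivity label reflects its gate of origin.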", "values": [
      {"sequence": "QVQLVESGRGLVQAGGSLRLSCAASGSILVFYAMGWYRQAPGKERELVATITGSVGRTSYADSVKGRFTISRDNAKNTVYLQMNSLKPEDSAVYYCAADADTDVFYILQEYDYWGQGTQVTVSS", "polyreactivity (PSR sort gate)": "low polyreactivity"},
      {"sequence": "QVQLVESGGGLVQAGGSLRLSCAASGRIFWYYAMGWYRQAPGKERELVAAITKSGGSTYYADSVKGRFTISRDYAKNTVYLQMNSLKPEDTAVYYCAAPTWTRSSFDYWGQGTQVTVSS", "polyreactivity (PSR sort gate)": "high polyreactivity"},
      {"sequence": "QVQLVESGGGLVQAGGSLRLSCAASGSIFFSYAMGWYRPAPGKERELVAGINWSGGSTYADSVKGRFTLSRDNAKNTVYLQINSLKPEDTAVYYCAAKYYSERSRYHYWGQGTQVTVSS", "polyreactivity (PSR sort gate)": "low polyreactivity"},
      {"sequence": "QVQLVESGGGLVQAGGSLRLRCAASGFIFGPNAMGWYRQAPGKEREFDAAINWSGGTTYYADSVKGRFTISRDNAKNTVYLQMNSLKPEDTAVYYCAASLYSDVAAVATYGYYWGQGTQVTVSS", "polyreactivity (PSR sort gate)": "low polyreactivity"},
      {"sequence": "QVQLVESGGGLVQAGGSLRLSCAASGFIFVWNAMGWYRQAPGKERELVANIRDGGITYADSVKGRFTITRDNAKNTVYLQMNSLKPEDTAVYYCARTNFYRSYEPGGRFYNYDYWGQGTQVTVSS", "polyreactivity (PSR sort gate)": "low polyreactivity"},
      {"sequence": "QVQLVESGGGLVQAGGSLRLSCAASGSIFPVYAMGWYRQAPGKERELVAAISWIGGGTYYADSVKGRFTISRDNAKNTVYLQMNSLKPEDTAVYYCAAVPYTSEYDYWGQGTKVTVSS", "polyreactivity (PSR sort gate)": "high polyreactivity"},
      {"sequence": "QVLLVDSGGGLVHAGGIHRLSCHASVGIFSWYDMGLYRQAPGKERELVAAISWSGGSTYYAYSVKGRFTISRDNAKNTVYLQMNSLKPEDTAVYYCAAYTADYYDYWGQGTQVTVSS", "polyreactivity (PSR sort gate)": "high polyreactivity"},
      {"sequence": "QVQLVESGGGLVQAGGSLRLSCAASGFTFRGYAMGWYRQAPGKERELVAAISWRGGSTYYADSVKGRFTISRDNAKNTVYLQMNSLKPEDTAVYYCAARYGRSYFGYYYWGQGTQVTVSS", "polyreactivity (PSR sort gate)": "high polyreactivity"},
      {"sequence": "QVQLVESGGGLVQAGGSLRLSCAASGRTCGRYAMVLYRQAPGKERELVAAISYSGGSTYYADSVKGRFTISRDNAKNTVYLQMNSLKPEDTAVYYCARYSIFRWTRDEYWGQGTQVTVSS", "polyreactivity (PSR sort gate)": "high polyreactivity"},
      {"sequence": "QVQLVESGGGLVQAGGSLGLSCAASGSTFLHDAMGWYRQAPGKERELVAAISVSGVRTYYADSVKGRFTISRDNGKNTVYLQMNSLKPEDTAVYYCAADGHHADYDFWGQGTQVTVSS", "polyreactivity (PSR sort gate)": "low polyreactivity"},
      {"sequence": "QVQLVESGGGLVQAGGSLRLSCAASGSTFYRYAMGWYRQAPGKERELVAAITRGGGRTYYADSVKGRFTISRDNAKNTVYLQMNSLKPEDTAVYYCNAASPYYDSWGQGTQVTVSS", "polyreactivity (PSR sort gate)": "high polyreactivity"},
      {"sequence": "QVQLVESGGGLVQAGGSLRLSCAASGPTFWRNAMGWYRQAPGKEREFVASISRSGGSTYYADSVKGRFTISRDNAKNTVYLQMNSLKPEDTAVYYCAALGVRGYRGPGGQDYNSWGQGTQVTVSS", "polyreactivity (PSR sort gate)": "high polyreactivity"},
      {"sequence": "QVQLVESGGGLVQAGGSLRLSCAASGSIFWKYAMGWYRQAPGKERELVAAISRSSSTTYYADSVKGRFTISRDNAKNTVYLQMNSLKPEDTAVYYCAADWRTKGYDSLGQGTQVTVSS", "polyreactivity (PSR sort gate)": "high polyreactivity"},
      {"sequence": "QVQLVESGGGLVQAGGSLRLSCAASGIIFVRYAMGWYRQAPGKERELVAAITRNGGRTYYADSVKGRFTISRDNAKNTVYLQMNSLKPEDTAVYYCAAYPAYPGTLEMDYWGQGTQVTVSS", "polyreactivity (PSR sort gate)": "high polyreactivity"},
      {"sequence": "QVQLVESGGGLVQAGGSLRLSCAASGIIFYRYAMGWYRQAPGKERELVAAISSSGGSTYYADSVKGRFTISRDNAKNTVYLQMNSLKPEDTAVYYCARVTTVYDGRGFVDVKRGYWGQGTQVTVSS", "polyreactivity (PSR sort gate)": "high polyreactivity"},
      {"sequence": "QVQLVQSGGGLVQAGGSLRLSCAASGSTFWMNAMGWYRQAPGKEREFVAAITVRGGSTYYADSVKGRFTISRDNAKNTVYLQMNSLKPEDTAVYYCNRPSSLAWPWTGSFSRYDYWGQGTQVTVSS", "polyreactivity (PSR sort gate)": "low polyreactivity"},
      {"sequence": "QVQLVESGGGLVQAGGSLRLSCAASGYIFATYAMGWYRQAPGKERELVAAITSTGSTYYADSVKGRFTISRDNAKNTVYLQMNSLKPEDTAVYYCAAVSGYRARYYLYYYWGQGTQVTVSA", "polyreactivity (PSR sort gate)": "high polyreactivity"},
      {"sequence": "QVQLVESGGGLVQAGGSLRLSCAASGFIFPYNAMGWYRQAPGKERELVAGITSSGGGTYYADSVKGRFTISRDNAKNTVYLQMNSLKPEDTAVYYCNKVWSYHLYPYDYWGQGTQVTVSS", "polyreactivity (PSR sort gate)": "high polyreactivity"},
      {"sequence": "QVQLVESGGGLDQAGGSLRLICAASGFIFEYYAMGWYRQAPGKERELVASITSGGTTYYADSVKGRFTISRDNAKNTVYLQMNSLKPEDTAVDYCAAAWRIWWYHRGEFDYWGQGTQVTVSS", "polyreactivity (PSR sort gate)": "high polyreactivity"},
      {"sequence": "QVQLVESGGGLVQAGGSLRLSCAASGRTFYIYTMGWYRQAPGKERELVATAITSGGITYYADSVKGRFTISRDNAKNTVYLQMNSLKPEDTAVYYCAADDYYGYYGFNYWGQGTQVTVSS", "polyreactivity (PSR sort gate)": "low polyreactivity"},
      {"sequence": "QVQLVESGGGLVQAGGSLRLSCAASGITLYDNAMGWYRQEPGKERELVAAINVNDVSTYYADSVKGRFTISRDNAKNTVYLQMNSLKPEDTAVYYCAADSLYYGIGYWVVRYDYWGQGTQVTVSS", "polyreactivity (PSR sort gate)": "low polyreactivity"},
      {"sequence": "QVQLVESGGGLVQAGGSLRLSCAASGSIFVNNAMGLYRQAPGKERELVAAISSRSSRTFYADSVKGRFTISRDYAKNTVYLQMNSLKPEDTAVYYCAAELYGLKYGYYLSYDYWGQGTQVTVSS", "polyreactivity (PSR sort gate)": "high polyreactivity"},
      {"sequence": "QVQLVESGGGLVKAGGSLRFSCAASGSIFHPYELGWKTQAPRKESDLVAGISRSGTSTYYADSVKGRFTISRDNAKNTVYLQMNSLKPEDTAVYYCYKVLVGSNRGEYDYWGQGTQVTVSS", "polyreactivity (PSR sort gate)": "low polyreactivity"},
      {"sequence": "QVQLVESGGGLVQAGGSLRLSCAASGRTFVQNAMGWYRQAPGKERELVASIRYRDGSTYYADSVKGRFTISRDNAKNTVYLQMNSLKPEDTAVYYCAVRVTSDYYASRYYYWGQGSQVTVSS", "polyreactivity (PSR sort gate)": "high polyreactivity"},
      {"sequence": "QVQLVESGGGLVQAGGSLRLSCADSGRTFYRNAMGWYRQAPGKERELVAAITWSAGSTYYADSVKGRFTISRDNAKNTVYLQMNSLKPEDSAVYYCAKYPSKSYVPGDYWGQGTQVTVSS", "polyreactivity (PSR sort gate)": "low polyreactivity"},
      {"sequence": "QVQLVESGGGLVQAGGSLRLSCAASGSIFGYNTMGWYRQAPGKERELVAAISRGGSTNYADSVKGRFTISRDNAKNTVYLQMNSLKPEDTAVYYCAKRRWRQTTYSKGYDYWGQGTQVTVSS", "polyreactivity (PSR sort gate)": "high polyreactivity"},
      {"sequence": "QVQLVESGGGLVQAGGSLRLSCAASGRIFLVNAMGWYRQAPGKERELVAAISWSSGSTYYADSVKGSITISRDNAKNTVYLQMNSLKPEDTAVYYCAADGSSRGRYRYGYWGQGTQVTVSS", "polyreactivity (PSR sort gate)": "high polyreactivity"},
      {"sequence": "QVQLVESGGGLVQAGGSLRLSCAASGSTFRYYAMGWYRQAPGKERELVAAISSAGTTYYADSVKGRFTISRDNAKNTVYLQMNSLKPEDTAVYYCTARFVYHSSFAGFDYWGQGTQVTVSS", "polyreactivity (PSR sort gate)": "low polyreactivity"},
      {"sequence": "QDQLEESVGGLVQAGGSLRLSCAASGRIFVYNAMGWYRQAPGKERELVAAISKGGGSTYYADSVKGRFTISRDNAKNTVYLQMNSLKPEDTAVYYCAAVVSGRYWGYYSWGQGTQVTVSS", "polyreactivity (PSR sort gate)": "high polyreactivity"},
      {"sequence": "QVQLVESGGGLVQAGGSLRLSCAASGSTFYYNTMGWYRQAPGKERELVAAISWRGGSTYYADSVKGRYTISRDNAKNTVYLQMNSLKPEDTAVYYCAALTYYGSDYWGQGTQVTVSS", "polyreactivity (PSR sort gate)": "high polyreactivity"},
      {"sequence": "QVQLVESGGGLVQAGGRLRLSCAASGIIVGLYTMGWYRQARGKERELVAAISDSGGRTYYADSVKGRFTISRDNVKNTVYLQMNSLKPEDTAVYYCATRWPHYGGYYYWGQGTQVTVSS", "polyreactivity (PSR sort gate)": "high polyreactivity"}
    ]}
  ]
}
